Experimental data: patent publication EP4806514A2 (Lepu Biopharma Co., Ltd., dated 2025)
Where a chain is given by its changes, count along the chain named.

T1: human CDH17, full length, expressed on cells (HEK293-hCDH17); AsPC-1, HCT-8, AGS, LoVo, KATO III, HT-29 tumor … (human, UniProt Q12864 23-832)
T1 construct: also called human CDH17 expressed on tumor cells
T1 sequence: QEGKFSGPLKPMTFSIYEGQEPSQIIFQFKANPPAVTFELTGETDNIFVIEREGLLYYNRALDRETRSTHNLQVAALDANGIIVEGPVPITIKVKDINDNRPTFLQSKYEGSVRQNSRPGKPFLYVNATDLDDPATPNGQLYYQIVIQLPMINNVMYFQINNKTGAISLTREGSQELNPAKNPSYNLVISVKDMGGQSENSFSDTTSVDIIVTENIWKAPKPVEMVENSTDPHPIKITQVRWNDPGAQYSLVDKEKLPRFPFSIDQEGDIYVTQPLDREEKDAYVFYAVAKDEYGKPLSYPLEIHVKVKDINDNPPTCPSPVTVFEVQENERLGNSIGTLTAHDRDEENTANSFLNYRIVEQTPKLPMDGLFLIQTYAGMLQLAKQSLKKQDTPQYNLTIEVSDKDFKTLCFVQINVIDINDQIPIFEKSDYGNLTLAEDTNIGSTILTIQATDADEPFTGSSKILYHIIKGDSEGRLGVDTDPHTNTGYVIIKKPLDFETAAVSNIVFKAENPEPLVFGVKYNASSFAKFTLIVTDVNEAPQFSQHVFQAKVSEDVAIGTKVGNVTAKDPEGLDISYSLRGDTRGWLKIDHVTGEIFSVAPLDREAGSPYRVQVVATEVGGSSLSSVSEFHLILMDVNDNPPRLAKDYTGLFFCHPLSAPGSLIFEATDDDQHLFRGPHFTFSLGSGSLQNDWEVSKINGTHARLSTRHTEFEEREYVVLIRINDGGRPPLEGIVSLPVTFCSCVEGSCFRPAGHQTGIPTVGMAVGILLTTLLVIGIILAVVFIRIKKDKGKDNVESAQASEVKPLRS

T2: hCDH17-his (full length extracellular domain of human CDH17, Q23-M787, his tag at the C-terminal) (human, UniProt Q12864 23-787)
T2 construct: Limits of the construct (UniProt Q12864, Q23-M787, C-terminal his tag); also called human CDH17-his protein; human CDH17 protein
T2 sequence: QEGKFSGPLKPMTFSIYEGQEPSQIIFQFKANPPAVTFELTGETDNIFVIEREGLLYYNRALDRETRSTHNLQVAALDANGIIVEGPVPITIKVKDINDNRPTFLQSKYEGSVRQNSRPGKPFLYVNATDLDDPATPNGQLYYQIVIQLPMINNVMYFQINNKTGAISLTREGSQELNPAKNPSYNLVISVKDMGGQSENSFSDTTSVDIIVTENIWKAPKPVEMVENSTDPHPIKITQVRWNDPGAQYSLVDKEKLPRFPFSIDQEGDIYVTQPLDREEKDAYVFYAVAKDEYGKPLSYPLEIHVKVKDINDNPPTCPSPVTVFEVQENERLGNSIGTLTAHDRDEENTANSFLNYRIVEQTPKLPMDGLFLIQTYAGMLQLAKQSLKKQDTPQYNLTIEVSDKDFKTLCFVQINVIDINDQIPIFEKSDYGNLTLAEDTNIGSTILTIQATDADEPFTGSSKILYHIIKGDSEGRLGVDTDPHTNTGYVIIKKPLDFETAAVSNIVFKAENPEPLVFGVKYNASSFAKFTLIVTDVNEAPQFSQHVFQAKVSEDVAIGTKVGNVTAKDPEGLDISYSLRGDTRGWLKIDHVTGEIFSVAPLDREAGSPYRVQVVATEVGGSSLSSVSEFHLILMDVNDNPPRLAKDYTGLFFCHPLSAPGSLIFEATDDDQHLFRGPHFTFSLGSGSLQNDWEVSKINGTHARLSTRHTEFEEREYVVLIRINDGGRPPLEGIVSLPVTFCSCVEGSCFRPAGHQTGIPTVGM

B1: 69E3H11-z12 (antibody, V domains shown)
VH: QVQLVQSGAEVKKPGASVKVSCKASGYTFTTYWMHWVKQAPGQRLEWIGEIDPSDSYANYNQKFKGKATLTVDKSASTAYMELSSLRSEDTAVYYCALYYGYGDWGQGTTVTVSS
VL: EIVLTQSPGTLSLSPGERATLSCSVSSSISSIHLHWYQQKPGQAPRLLIYRTSNLASGIPDRFSGSGSGTDFTLTISRLEPEDFAVYYCQQGSNLPLTFGQGTRLEIK
notes: Humanized, human IgG1 constant region; also called 69E3H11 HU-VH1-3 / HU-VL2-0
B2: 69E3H11-z10 (antibody, V domains shown)
VH: B1 VH
VL: EIVLTQSPDFQSVTPKEKVTITCSVSSSISSIHLHWYQQKPDQSPKLLIKRTSNLASGVPSRFSGSGSGTDFTLTINSLEAEDAATYYCQQGSNLPLTFGQGTRLEIK
notes: Humanized, human IgG1 constant region; also called 69E3H11 HU-VH1-3 / HU-VL1-0
B3: 29D2D7-z19 (antibody, V domains shown)
VH: QVQLVQSGAEVKKPGASVKVSCKASGYTFTDYDMHWVKQAPGQGLEWIGGFDPESAGTVYNLRFKDKATLTADKSTSTAYMELRSLRSEDTAVYYCARKGYYSVSSPFTYWGQGTLVTVSS
VL: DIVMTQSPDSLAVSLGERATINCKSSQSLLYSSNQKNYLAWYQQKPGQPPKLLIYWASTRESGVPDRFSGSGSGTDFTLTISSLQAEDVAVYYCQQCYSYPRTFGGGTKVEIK
notes: Humanized, human IgG1 constant region
B4: 61C7F12-z2 (antibody, V domains shown)
VH: EVQLVESGGGLVKPGGSLRLSCAASGFTFSSYAMSWVRQAPGKGLEWVSTINIGGSYTYYPDSVKGRFTISRDNAKNSLYLQMNSLRAEDTAVYYCARQEGRYWYFDVWGQGTTVTVSS
VL: DIQLTQSPSFLSASVGDRVTITCTASSSVSSSYLHWYQQKPGKAPKLWIYSTSNLASGVPSRFSGSGSGTEYTLTISSLQPEDFATYYCHQFHRSPYTFGGGTKVEIK
notes: Humanized, human IgG1 constant region; also called 61C7F12 HU-VH1-0 / HU-VL1-1
B5: 61C7F12-z9 (antibody, V domains shown)
VH: B4 VH
VL: EIVLTQSPGTLSLSPGERATLSCTASSSVSSSYLHWYQQKPGQAPRLLIYSTSNLASGIPDRFSGSGSGTDFTLTISRLEPEDFAVYYCHQFHRSPYTFGGGTKVEIK
notes: Humanized, human IgG1 constant region; also called 61C7F12 HU-VH1-0 / HU-VL2-0
B6: 61C7F12-z3 (antibody, V domains shown)
VH: B4 VH
VL: B4 VL with Q3V, A44S, T73S
notes: Humanized, human IgG1 constant region; also called 61C7F12 HU-VH1-0 / HU-VL1-2
B7: 61C7F12-z1 (antibody, V domains shown)
VH: B4 VH
VL: B4 VL with W48L, Y72F
notes: Humanized, human IgG1 constant region; also called 61C7F12 HU-VH1-0 / HU-VL1-0
B8: 61C7F12-z8 (antibody, V domains shown)
VH: B4 VH with S49A
VL: B4 VL with D1Q, Q3V, A44S, E71S, T73S
notes: Humanized, human IgG1 constant region; also called 61C7F12 HU-VH1-1 / HU-VL1-3
B9: 61C7F12-z6 (antibody, V domains shown)
VH: B4 VH with S49A
VL: B4 VL
notes: Humanized, human IgG1 constant region; also called 61C7F12 HU-VH1-1 / HU-VL1-1
B10: 61C7F12-z4 (antibody, V domains shown)
VH: B4 VH
VL: B4 VL with D1Q, Q3V, A44S, E71S, T73S
notes: Humanized, human IgG1 constant region; also called 61C7F12 HU-VH1-0 / HU-VL1-3
B11: 61C7F12-z10 (antibody, V domains shown)
VH: B4 VH with S49A
VL: B5 VL
notes: Humanized, human IgG1 constant region; also called 61C7F12 HU-VH1-1 / HU-VL2-0
B12: 61C7F12-z5 (antibody, V domains shown)
VH: B4 VH with S49A
VL: B4 VL with W48L, Y72F
notes: Humanized, human IgG1 constant region; also called 61C7F12 HU-VH1-1 / HU-VL1-0
B13: 61C7F12-z7 (antibody, V domains shown)
VH: B4 VH with S49A
VL: B4 VL with Q3V, A44S, T73S
notes: Humanized, human IgG1 constant region; also called 61C7F12 HU-VH1-1 / HU-VL1-2
B14: 29H8D3-z23 (antibody, V domains shown)
VH: QVQLVQSGAEVKKPGASVKVSCKASGYTFTDHTIHWMRQAPGQGLEWIGYIYPRDGYTKYNEKFKDRATMTTDTSTSTAYMELRSLRSDDTAVYYCARFYYGYWYFDVWGQGTTVTVSS
VL: DIVMTQSPLSLPVTPGEPASISCRSSKSLLRSNGNTYLYWFLQKPGQSPQVLIYRMSNLASGVPDRFSGSGSGTAFTLKISRVEAEDVGVYYCMQHLEYPFTFGAGTKLEIK
notes: as for B3
B15: 29H8D3-z20 (antibody, V domains shown)
VH: B14 VH with A40R, M70L, T72A
VL: B14 VL with A105Q
notes: as for B3
B16: 29H8D3-z19 (antibody, V domains shown)
VH: B14 VH
VL: B14 VL with A105Q
notes: as for B3
B17: 29H8D3-z22 (antibody, V domains shown)
VH: B14 VH with M37V
VL: B14 VL
notes: as for B3
B18: 29H8D3-z17 (antibody, V domains shown)
VH: B14 VH with M37V, I48M, A68V
VL: B14 VL with A105Q
notes: as for B3
B19: 29H8D3-z18 (antibody, V domains shown)
VH: B14 VH with M37V
VL: B14 VL with A105Q
notes: as for B3
B20: 29H8D3-z21 (antibody, V domains shown)
VH: B14 VH with M37V, I48M, A68V
VL: B14 VL
notes: as for B3
B21: 29H8D3-z12p1 (antibody, V domains shown)
VH: B14 VH with A40R, D55E, M70L, T72A
VL: B14 VL with A75D, A105Q
notes: PTM-removed variant of 29H8D3-z12
B22: 29H8D3-z12p13 (antibody, V domains shown)
VH: B14 VH with A40R, M70L, T72A
VL: B14 VL with A75D, M94S, A105Q
notes: PTM-removed variant of 29H8D3-z12; VH is that of 29H8D3-z12
B23: 29H8D3-z12p9 (antibody, V domains shown)
VH: B14 VH with A40R, M70L, T72A
VL: B14 VL with A75D, M94H, A105Q
notes: as for B21
B24: 29H8D3-z12p10 (antibody, V domains shown)
VH: B14 VH with A40R, M70L, T72A
VL: B14 VL with A75D, M94K, A105Q
notes: as for B22
B25: 29H8D3-z12p14 (antibody, V domains shown)
VH: B14 VH with A40R, M70L, T72A
VL: B14 VL with A75D, M94T, A105Q
notes: as for B22

These binders were tested against T1, human CDH17, full length, expressed on … (assay: flow cytometry, HEK293-hCDH17 cells).

binding result	Binder
binds	B1
binds	B2
binds	B3
binds	B4
binds	B5
binds	B6
binds	B7
binds	B8
binds	B9
binds	B10
binds	B11
binds	B12
binds	B13

Each binder was assayed against T2, hCDH17-his (full length extracellular …) (assay: SPR (Biacore 8K), antibody captured on Protein A chip, hCDH17-his injected).

binding result	Binder
binds	B14
binds	B15
binds	B16
binds	B17
binds	B18
binds	B19
binds	B20
binds	B1
binds	B3
binds	B4
binds	B5
binds	B6
binds	B7
binds	B8
binds	B11

The binders below were run against T2, hCDH17-his (full length extracellular …) (assay: SPR (Biacore 8K), two doses, antibody captured on Protein A chip, hCDH17-his at 25 nM and 100 nM).

binding result	Binder
binds	B21
binds	B22
binds	B23
binds	B24
binds	B25
